Test results taken from US20120258145A1.

Molecular target: stomach proteases of BALB/c mice
Assay: cell-based or functional assay

Q: For “non-lipidated Omp19S polypeptide of Brucella abortus, recombinant from E. coli, with a histidine tai (from UniProt P0A3P1 22-177)”, which inhibitory effect on the action of stomach proteases is on record?
A: The inhibitory effect on the action of stomach proteases was greater than 30%.
